Broadly, the EC50 is the concentration that produces a half-maximal response. A word on the EC25: it is the concentration at which the effect reaches the 25% level. A high value points to weaker potency.

In patent US20230324404A1 (Takeda / Millennium, published 2023) one finds binding result, EC50 and EC25 data, which are given here for seven molecules.

Read-outs that look alike come from different tables or passages of the source.

Experiment [1] concerns the target T1, DENV1 VLP (strain Puerto Rico/US/BID-V853/1998) (Dengue virus serotype 1 strain Puerto …).
T1 construct: also called dengue-1 virus like particle
Nature of the experiment: microsphere immunoassay, DENV1 VLP-coupled microspheres.

The target of experiment [2] is T2, DENV2 VLP (strain Thailand/16681/84) (Dengue virus serotype 2 strain …).
T2 construct: also called dengue-2 virus like particle
Nature of the experiment: microsphere immunoassay, DENV2 VLP-coupled microspheres.

Experiment [3] has as its target T3, DENV3 VLP (strain Sri Lanka D3/H/IMTSSA-SRI/2000/1266) (Dengue virus serotype 3 strain Sri …).
T3 construct: also called dengue-3 virus like particle
In words: microsphere immunoassay, DENV3 VLP-coupled microspheres.

In experiment [4] the target is T4, DENV4 VLP (strain Dominica/814669/1981) (Dengue virus serotype 4 strain …, UniProt P09866 114-732).
T4 construct: also called dengue-4 virus like particle
Nature of the experiment: microsphere immunoassay, DENV4 VLP-coupled microspheres.

The target in experiment [5] is T5, ZIKV VLP (zika virus like particle, isolate Z1106033) (Zika virus isolate Z1106033 (Suriname, …, UniProt A0A024B7W1 123-794)).
T5 construct: also called zika VLP; ZIKV VLPs

For experiment [6], the target named is T5, ZIKV VLP (zika virus like particle, …). This is another data set of the same source.
The target is the same in experiment [7]. This is another data set of the same source.
In experiment [8] the target is T1, DENV1 VLP (strain Puerto …). In words: microsphere immunoassay, DENV1 VLP-coupled microspheres, 120 min incubation.
In experiment [9] the target is T2, DENV2 VLP (strain Thailand/16681/84). Nature of the experiment: microsphere immunoassay, DENV2 VLP-coupled microspheres, 120 min incubation.
Experiment [10] addresses T3, DENV3 VLP (strain Sri Lanka …). In words: microsphere immunoassay, DENV3 VLP-coupled microspheres, 120 min incubation.
Experiment [11] deals with T4, DENV4 VLP (strain Dominica/814669/1981). Nature of the experiment: microsphere immunoassay, DENV4 VLP-coupled microspheres, 120 min incubation.

B1: Anti-ZIKV #5 (Clone 306-2) (antibody, V domains shown)
VH: QSLEESGGDLVKPGASLTLTCTASGFDFSDRYYMCWVRQAPGKGLEWIGCIYVGSGDTYYASWAKGRFTISRTSSTTVTLQMTRLTAADTATYFCARHPGTYFTLWGPGTLVTVSS
VL: DVVMTQTPSSVSAAVGGTVTINCQASQNIVNNLAWYQQRPGQPPKLLIYDTSTLASGVPSRFKGSGSGTEFTLTISDLECADAATYYCQTYYYYNKIINGFGGGTEVVVKG
For the molecule B1, the binding result in experiment [1], in experiment [2], in experiment [3] and in experiment [4] was “no binding (tested: 0.001 to 20 µg/mL)” throughout. Further, the results for the EC50 in [5], in experiment [6] and in experiment [7] were 0.256 µg/mL, 0.066 µg/mL and 0.0158 µg/mL, respectively. In experiment [7], this molecule came in with an EC25 of 0.0047 µg/mL.

B2: Anti-ZIKV #7 (IgG2a kappa, Clone ZKA-64) (antibody, V domains shown)
VH: QVQLVQSGAEVKKPGASVKVSCKASGYTFTGYHIDWVRQARGQGLEWMGRINPNSGGTNYAQKFQGRVTMTRDTSISTAYMQLSRLRSDDSAVYYCARMSSSIWGFDHWGQGTLVTVSS
VL: EIVMTQSPATLSVSPGERATLSCRASQSVLINLAWYQQKPGQAPRLLIYGASSRATGIPARFSGSGSGTEFTLTISSLQSEDFAVYYCQQYNDWPPITFGQGTRLEIK
Take B2: the binding result in experiment [1], in experiment [2], in [3] and in experiment [4] was “no binding (tested: 0.001 to 20 µg/mL)” in each case. For the same molecule, the EC50 is 1.18 µg/mL in experiment [5], 0.423 µg/mL in experiment [6] and 0.101 µg/mL in experiment [7]. This molecule also yielded an EC25 in experiment [7] of 0.0296 µg/mL.

B3: Anti-ZIKV #6 (IgG2c kappa, Clone ZV-67) (antibody, V domains shown)
VH: QAQLQQSGTGLARPGASVKLSCKASGYTFTSYGISWVTQRAGQGLEWIGVIYPRSGNTYYNEKFRGKATLTADKSSSSAYMELRGLTAEDSAVYFCARENYGSVYWGQGTTLTVSS
VL: DIVMTQSQKFMSTSVGDRVSITCKASQNVGTAVAWYQQKPGQSPKLLIYSASNRYTGVPDRFTGSGSGTDFTLTISNMQSEDLADYFCQQFSSYPYTFGGGTKLEIK
With B3, the binding result in experiment [1], in experiment [2], in experiment [3] and in experiment [4] was “no binding (tested: 0.001 to 20 µg/mL)” in each case. Also, the EC50 stood at 0.677 µg/mL in experiment [5], 0.134 µg/mL in experiment [6] and 0.0273 µg/mL in experiment [7]. In [7], this molecule gave an EC25 of 0.0081 µg/mL.

B4: Anti-ZIKV #9 (Clone 181-4) (antibody)
heavy: QAQLEESGGDLVKPEGSLTLTCTASGFSFTDRHYMCWVRQAPGKGLEWIACVYPGSSGSTYYASWARGRFTISKTSSTTVTLRMTSLTAADTATYFCARSSYPDSSGYSYGMDLWGPGTLVTVSSGQPKAPSVFPLAPCCGDTPSSTVTLGCLVKGYLPEPVTVTWNSGTLTNGVRTFPSVRQSSGLYSLSSVVSVTSSSQPVTCNVAHPATNTKVDKTVAPSTCSKPTCPPPELLGGPSVFIFPPKPKDTLMISRTPEVTCVVVDVSQDDPEVQFTWYINNEQVRTARPPLREQQFNSTIRVVSTLPIAHQDWLRGKEFKCKVHNKALPAPIEKTISKARGQPLEPKVYTMGPPREELSSRSVSLTCMINGFYPSDISVEWEKNGKAEDNYKTTPAVLDSDGSYFLYSKLSVPTSEWQRGDVFTCSVMHEALHNHYTQKSISRSPGK
light: DIVMTQTPASVEAAVGGTVTIKCQASQNINSNLAWYQQKPGQRPKFLMYLTSKLASGVPSRFRGSGSGTQFTLTISDLECADAATYYCQTYYDISNYGYAFGGGTEVVVKGDPVAPTVLIFPPAADQVATGTVTIVCVANKYFPDVTVTWEVDGTTQTTGIENSKTPQNSADCTYNLSSTLTLTSTQYNSHKEYTCKVTQGTTSVVQSFNRGDC
In the case of B4, the binding result in [8], in [9], in experiment [10] and in experiment [11] was “no binding (tested: 0.001 to 20 µg/mL)” throughout. The molecule also displayed an EC25 in experiment [7] of 0.0059 µg/mL. Moreover, a half-maximal effect in experiment [7] (EC50) was put at 0.0156 µg/mL.

B5: Anti-ZIKV #8 (Clone 260-2) (antibody)
heavy: QAQLEESGGDLVKPEGSLTLTCTASGFSFTDRHYMCWVRQAPGKGLEWIACVYPGSSGSTYYASWARGRFTISKTSSTTVTLRMTSLTAADTATYFCARSSYPDSSGYSYGMDLWGPGTLVTVPSGQPKAPSVFPLAPCCGDTPSSTVTLGCLVKGYLPEPVTVTWNSGTLTNGVRTFPSVRQSSGLYSLSSVVSVTSSSQPVTCNVAHPATNTKVDKTVAPSTCSKPTCPPPELLGGPSVFIFPPKPKDTLMISRTPEVTCVVVDVSQDDPEVQFTWYINNEQVRTARPPLREQQFNSTIRVVSTLPIAHQDWLRGKEFKCKVHNKALPAPIEKTISKARGQPLEPKVYTMGPPREELSSRSVSLTCMINGFYPSDISVEWEKNGKAEDNYKTTPAVLDSDGSYFLYSKLSVPTSEWQRGDVFTCSVMHEALHNHYTQKSISRSPGK
light: DIVMTQTPASVEAAVGGTVTIKCQASQNINSNLAWYQQKPGQRPKFLMYLTSKLASGVPSRFRGSGSGTQFTLTISDLECADAATYYCQTYYDISNYGYAFGGGTEVVVKGDPVAPTVLIFPPAADQVATGTVTIVCVANKYFPDVTVTWEVDGTTQTTGIENSKTPQNSADCTYNLSSTLTLTSTQYNSHKEYTCKVTQGTTSVVQSFNRGDC
Consider B5, for which the binding result in experiment [8], in experiment [9], in experiment [10] and in experiment [11] was “no binding (tested: 0.001 to 20 µg/mL)” each time. The molecule further showed an EC25 in experiment [7] of 0.0075 µg/mL. Further, the response in experiment [7] was half-maximal at 0.0252 µg/mL (EC50).

B6: Anti-ZIKV #2 (Clone 242-3) (antibody, V domains shown)
VH: QAQLEESGGDLVKPEGSLTLTCTASGFSFTDRHYMCWIRQAPGKGLEWIACVYPGSSGSTYYASWARGRFTISKTSSTTVTLRMTSLTAADTATYFCARSSYPDSSGYSYGMDLWGPGTLVTVSS
VL: DIVMTQTPASVEAAVGGTVTIKCQASQNINSNLAWYQQKPGQRPKFLMYLTSKLASGVPSRFRGSGSGTQFTLTISDLECADAATYYCQTYYDISNYGYAFGGGTEVVVKG
Consider B6, for which the binding result in [1], in experiment [2], in experiment [3] and in experiment [4] was “no binding (tested: 0.001 to 20 µg/mL)” throughout. For the same molecule, the EC50 came out at 0.14 µg/mL in [5], 0.044 µg/mL in experiment [6] and 0.008 µg/mL in [7]. Moreover, the 25% effect level in experiment [7] (EC25) was put at 0.0024 µg/mL.

B7: Anti-ZIKV #3 (Clone 270-12) (antibody, V domains shown)
VH: QAQLEESGGDLVKPEGSLTLTCTASGFSFTDRHYMCWVRQAPGKGLEWIACVYPGSSGSTYYASWARGRFTISKTSSTTVTLRMTSLTAADTATYFCARSSYPDSSGYSYGMDLWGPGTLVTVSS
VL: DIVMTQTPASVEAAVGGTVTIKCQASQDINSNLAWYQQKPGQRPKFLMYLTSKLASGVPSRFRGSGSGTQFTLTISDLECADAATYYCQTYYDISNYGYAFGGGTEVVVKG
For the molecule B7, the binding result in experiment [1], in experiment [2], in [3] and in [4] was “no binding (tested: 0.001 to 20 µg/mL)” each time. The EC50 amounted to 0.181 µg/mL in [5], 0.061 µg/mL in experiment [6] and 0.0144 µg/mL in experiment [7]. Further, it took 0.0045 µg/mL to reach the 25% level in experiment [7] (EC25).
